Source: US8084228B2, “Nogo-B receptor antagonists” (Yale University, priority 2006, dated 2011)

T1: NgBR (Homo sapiens, UniProt Q96E22)
T1 sequence (Q96E22 1-293): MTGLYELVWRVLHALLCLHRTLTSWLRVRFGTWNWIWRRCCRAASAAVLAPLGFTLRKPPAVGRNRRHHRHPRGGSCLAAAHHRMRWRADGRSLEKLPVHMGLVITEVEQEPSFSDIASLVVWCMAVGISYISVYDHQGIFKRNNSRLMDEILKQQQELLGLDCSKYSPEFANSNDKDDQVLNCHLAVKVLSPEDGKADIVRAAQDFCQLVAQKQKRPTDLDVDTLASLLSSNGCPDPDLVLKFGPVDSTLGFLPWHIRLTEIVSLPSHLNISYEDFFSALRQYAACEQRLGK

T2: Nogo receptor (Homo sapiens, UniProt Q9BZR6)
T2 construct: expressed in transfected cells; host or cells: COS-7
T2 sequence (Q9BZR6 27-447): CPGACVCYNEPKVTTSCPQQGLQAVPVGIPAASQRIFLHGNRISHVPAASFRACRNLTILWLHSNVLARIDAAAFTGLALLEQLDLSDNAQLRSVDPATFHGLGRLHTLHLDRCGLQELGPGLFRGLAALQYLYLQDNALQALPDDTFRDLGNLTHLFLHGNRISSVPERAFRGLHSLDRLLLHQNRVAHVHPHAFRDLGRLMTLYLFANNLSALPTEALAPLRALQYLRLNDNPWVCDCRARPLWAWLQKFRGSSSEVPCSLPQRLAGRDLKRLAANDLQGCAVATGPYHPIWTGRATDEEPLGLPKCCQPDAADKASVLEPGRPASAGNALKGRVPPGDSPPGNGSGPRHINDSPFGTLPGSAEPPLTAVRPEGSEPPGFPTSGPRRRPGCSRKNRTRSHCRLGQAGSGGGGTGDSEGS

B1: AP-Nogo-66: AP fusion of Nogo-66, a 66 amino acid residue loop in the RHD (protein)
chain: RIYKGVIQAIQKSDEGHPFRAYLESEVAISEELVQKYSNSALGHVNCTIKELRRLFLVDDLVDSLK
modifications: left off: large carriers
notes: AP fusion of Nogo-66, a 66 amino acid residue loop in the RHD
B2: AP-Nogo-B (amino acids 1-180): AP fusion with amino acids 1-180 of Nogo-B (protein)
chain: MEDLDQSPLVSSSDSPPRPQPAFKYQFVREPEDEEEEEEEEEEDEDEDLEELEVLERKPAAGLSAAPVPTAPAAGAPLMDFGNDFVPPAPRGPLPAAPPVAPERQPSWDPSPVSSTVPAPSPLSAAAVSPSKLPEDDEPPARPPPPPPASVSPQAEPVWTPPAPAPAAPPSTPAAPKRRG
modifications: left off: large carriers
notes: AP fusion with amino acids 1-180 of Nogo-B
B3: Ap-Nogo-B (61-200): AP fusion with amino acids 61-200 of Nogo-B (protein)
chain: AGLSAAPVPTAPAAGAPLMDFGNDFVPPAPRGPLPAAPPVAPERQPSWDPSPVSSTVPAPSPLSAAAVSPSKLPEDDEPPARPPPPPPASVSPQAEPVWTPPAPAPAAPPSTPAAPKRRGSSGSVVVDLLYWRDIKKTGV
modifications: left off: large carriers
notes: AP fusion with amino acids 61-200 of Nogo-B
B4: AP-Nogo-A (59-172): AP fusion with biologically active domain 59-172 of Nogo-A (protein)
chain: PAAGLSAAPVPTAPAAGAPLMDFGNDFVPPAPRGPLPAAPPVAPERQPSWDPSPVSSTVPAPSPLSAAAVSPSKLPEDDEPPARPPPPPPASVSPQAEPVWTPPAPAPAAPPST
modifications: left off: large carriers

Key:
Endothelial cells = experiment: Am-Nogo-B-induced migration of endothelial cells, inhibition by NgBR ectodomain peptides or fusion protein; format: cell-based; conditions: peptide 200 nM, Am-Nogo-B 100 nM
Method: (§1) Cell migration was examined in modified Boyden chambers using 10 nM each of purified recombinant AP, AP fusion of Nogo-66 (AP-Nogo-66) or Am-Nogo-B. The transwell inserts (Costar transwell inserts; Corning) were coated with a solution of 0.1% gelatin (Sigma) in PBS at 4° C. overnight and then air-dried. VEGF at 50 ng/mL (1.1 nM) or recombinant Am-Nogo-B at various concentrations dissolved in medium 199 containing 0.1% BSA was added in the bottom chamber of the Boyden apparatus. HUVEC (200,000 cells) suspended in a 100 μL aliquot of medium 199 containing 0.1% BSA was added to the upper chamber. After 5 hours incubation, cells on both sides of the membrane were fixed and stained with a Diff-Quik staining kit (Baxter Healthcare, Miami, Fla.). The average number of cells from five randomly chosen high-power (×400) fields on the lower side of the membrane was counted.
Endothelial cells were incubated with vehicle (control) of one of peptides P1-P4 (200 nM each) in the presence of Am-Nogo-B (100 nM).
Similarly, treatment of endothelial cells with mFc-ecto, but not mFc, blocked Am-Nogo-B-induced cell migration (FIG. 35).

NgBR mRNA = NgBR mRNA by quantitative PCR after siRNA transfection of HUVEC; format: cell-based, human; conditions: 72 hours after transfection, normalized to 18S
Method: (§2) NgBR siRNA oligonucleotides (SEQ ID NOS:2-5) with 3′ dTdT overhangs were synthesized by Qiagen. Control siRNA in experiments refers to a nonsilencing (NS) siRNA (NS forward: UUCUCCGAACGUGUCACGU, SEQ ID NO:7; NS reverse: ACGUGACACGUUCGGAGAA, SEQ ID NO:8) designed and synthesized by Qiagen. HUVEC and CHO stable cell lines were transfected with siRNA by using Oligofectamine. Quantification of NgBR mRNA and protein, ligand binding assay, and migration assay were performed at 72 hours after transfection.
Total RNA from cells was isolated by using the RNeasy kit (Qiagen). Reverse transcription was then performed by using 100 ng of RNA and the Superscript First-Strand Synthesis System kit (Invitrogen). Real-time PCR analysis was done with the iCycler iQ detection system using the iQ SYBR green Supermix kit (Bio-Rad). The NgBR mRNA level was normalized by housekeeping gene 18S. The following primers were used for NgBR: forward, 5′-[…]-3′ (SEQ ID NO:9) and reverse, 5′-[…]-3′ (SEQ ID NO:10). The following primers were used for 18S: forward, 5′-[…]-3′ (SEQ ID NO:11) and reverse, 5′-[…]-3′ (SEQ ID NO:12).

HUVEC [1] = experiment: AP-Am-Nogo-B binding to HUVEC after siRNA transfection; format: cell-based, human; conditions: 72 hours after siRNA transfection
Method: (§3) To detect AP-Am-Nogo-B binding, cultures were washed with Hanks' balanced salt solution (HBSS) containing 20 mM HEPES, pH 7.5, and 1 mg/mL BSA (HBH). The plates were then incubated with AP-Am-Nogo-B in DMEM containing 20 mM Hepes, pH 7.5, and 1 mg/mL BSA for 2 hours at 4° C. The bound AP-Am-Nogo-B was detected by using the Blue Substrate kit (Vector Laboratories). The blue staining was examined by using the ODYSSEY Infrared Imaging System (Li-Cor, Lincoln, Nebr.) and confirmed by microscopy. Alternatively, the bound AP-Am-Nogo-B was extracted with Triton X-100, and AP activity was colorimetrically quantified by using p-nitrophenyl phosphate (Sigma) as substrate after heat inactivation of endogenous AP. Non-specific binding was determined by measuring binding in the presence of a 100-fold molar excess of recombinant Am-Nogo-B lacking the AP fusion protein. Specific binding was determined by subtracting the non-specific binding from total binding. For determination of apparent Kd, the binding of AP-Am-Nogo-B was measured in triplicate as described above and the Kd value was quantified by using the Scatchard plot program of GraphPad PRISM (one-site binding, linear regression) using the ratio of bound ligand to free ligand as the y axis and bound ligand (pM) as the x axis.
as §2

HUVEC [2] = experiment: HUVEC migration in modified Boyden chambers; format: cell-based, human; conditions: 10 nM purified recombinant protein, 5 hours
Method: The migratory response of human umbilical vein endothelial cells (HUVEC) in response to a gradient of recombinant, purified alkaline phosphatase (AP) fusion protein expressing Am-Nogo-B or a recombinant purified Am-Nogo-B was examined. HUVEC were cultured in M199 with 20% FBS and endothelial cell growth supplement (ECGS).
as §1

NgBR [3] = target: T1, NgBR; experiment: AP fusion protein binding to CHO cells expressing NgBR; set-up: an isolated cDNA encoding NgBR is 2,636 base pairs encoding an open reading frame of 293 amino acids; expressed in transfected cells; conditions: for surface binding of AP fusion domains to NgBR-expressing cells: CHO cells expressing NgBR (FIGS. 11, 14)
Method: as §3
A recombinant AP-Am-Nogo-B fusion protein was used to screen a cDNA expression library from human heart (500,000 independent clones) transfected into COS or CHO cells using Lipofectamine 2000 (Invitrogen). COS-7 cells were cultured in high-glucose DMEM with 10% FBS. CHO cells were cultured in MEM-α with 5% FBS.

HUVEC [4] = experiment: Binding of AP fusion proteins to the surface of HUVEC; set-up: species or system human; conditions: HUVEC (FIGS. 12, 15)
Method: as §3

Nogo receptor = target: T2, Nogo receptor; experiment: AP fusion protein binding to COS cells transfected with cDNA encoding the Nogo receptor; conditions: COS cells (FIG. 6)
Method: as §3
(§4) For expression cloning of Am-Nogo-B receptor, pools of 5,000 arrayed clones from a human heart cDNA library (OriGene Technologies, Rockville, Md.) were transfected into COS-7 cells, and AP-Am-Nogo-B binding was assessed by using AP versus AP-Am-Nogo-B binding and detection of the AP product by near-infrared cell imaging (Li-Cor, Lincoln, Nebr.) or AP activity assays.

NgBR [5] = target: T1, NgBR; experiment: AP fusion protein binding to COS cells transfected with the isolated NgBR cDNA; set-up: an isolated cDNA encoding NgBR is 2,636 base pairs encoding an open reading frame of 293 amino acids; expressed in transfected cells; host or cells: COS-7 (A4); conditions: COS cells (FIG. 6)
Method: as §3, §4
Single NgBR cDNA clones were isolated by sib selection and sequenced. […] The HA-tagged NgBR was immunoisolated with anti-HA immunobeads (Roche, Indianapolis, Ind.) and associated proteins analyzed by Western blotting. For the Western blots, expression of NgBR-HA was detected by using anti-HA (Roche) and NgBR (Imgenex), respectively, and beta-actin (Sigma) or Hsp90 (BD Biosciences-Pharmingen) was used to control for loading.

Molecule | Am-Nogo-B-induced migration of endothelial cells in presence of peptide (Endothelial cells) | surface binding of AP fusion domains to NgBR-expressing cells (NgBR [3]) | surface binding of AP fusion domains to HUVEC (HUVEC [4]) | also measured
P2: NgBR ectodomain peptide LAPLGFTLRKPPAVGRNRRHHRHPRGGSCL (SEQ ID NO: 14) (listed as Homo sapiens) | effectively reduced |  |  | 
P4: NgBR ectodomain peptide ADGRSLEKLPVHMGLVITEVEQEPSFSD (SEQ ID NO: 16) (listed as Homo sapiens) | to a lesser extent |  |  | 
PP2: truncated version of P2, TLRKPPAVGRNRRHHRHPRG (SEQ ID NO: 18) (listed as Homo sapiens) | nearly identical to that of P2 |  |  | 
nonsilencing RNA: nonsilencing (NS) control siRNA by Qiagen; forward UUCUCCGAACGUGUCACGU (SEQ ID NO:7) (antisense ACGUGACACGUUCGGAGAA; listed as RNA, chemistry not given here) [reference compound] |  |  |  | level of NgBR mRNA (NgBR mRNA): not; binding of AP-Am-Nogo-B to HUVEC (HUVEC [1]): not
scrambled version of P2: scrambled P2 control PGRHLKPSRFNARLHGPCRVLRAHGPLTRG (SEQ ID NO: 17) (scrambled version of SEQ ID NO 14) [reference compound] | did not block |  |  | 
B1 |  | did not bind | did not bind | HUVEC migration (HUVEC [2]): does not promote; binding to CHO cells stably expressing NgBR (NgBR [3]; increasing concentrations, 2 hours at 4° C.): not; binding to COS cells transfected with Nogo receptor cDNA (Nogo receptor): selectively bind; binding to COS cells transfected with the isolated NgBR cDNA (NgBR [5]): not
B2 |  | did not bind | did not bind | 
B3 |  | did | did | 
B4 |  | did not bind | did not bind | 
